Data taken from US20240270846A1 (published 2024).
Numbering of substitutions follows the chain as printed. Names may count otherwise.

B1: GLS3000 N28W one-arm antibody (H chain CE115HA000) (antibody, human IgG1, kappa, L234A L235A, N297A, name in Kabat numbering)
heavy: QVQLVESGGGVVQPGRSLRLSCAASGFTFSNAWMHWVRQAPGKGLEWVAQIKAKSNNYATYYAESVKGRFTISRDDSKNSLYLQMNSLKTEDTAVYYCRYVHYGAYYGVDAWGQGTTVTVSSASTKGPSVFPLAPSSKSTSGGTAALGCLVKDYFPEPVTVSWNSGALTSGVHTFPAVLQSSGLYSLSSVVTVPSSSLGTQTYICNVNHKPSNTKVDKKVEPKSCDKTHTCPPCPAPEAAGGPSVFLFPPKPKDTLMISRTPEVTCVVVDVSHEDPEVKFNWYVDGVEVHNAKTKPREEQYASTYRVVSVLTVLHQDWLNGKEYKCKVSNKALPAPIEKTISKAKGQPREPQVYTLPPSRCELTKNQVSLSCAVKGFYPSDIAVEWESNGQPENNYKTTPPVLDSDGSFFLVSKLTVDKSRWQQGNVFSCSVMHEALHNHYTQKSLSLSPDYKDDDDK
chain: EPKSSDKTHTCPPCPAPELLGGPSVFLFPPKPKDTLMISRTPEVTCVVVDVSHEDPEVKFNWYVDGVEVHNAKTKPREEQYNSTYRVVSVLTVLHQDWLNGKEYKCKVSNKALPAPIEKTISKAKGQPREPQVCTLPPSRDELTKNQVSLWCLVKGFYPSDIAVEWESNGQPENNYKTTPPVLDSDGSFFLYSKLTVDKSRWQQGNVFSCSVMHEALHNRYTQKSLSLSP
light: DIVMTQSPLSLPVTPGEPASISCRSSQSLVHSWRNTYLHWYQQKPGQAPRLLIYKVSNRFSGVPDRFSGSGSGTDFTLKISRVEAEDVGVYYCGQGTQVPYTFGQGTKLEIKRTVAAPSVFIFPPSDEQLKSGTASVVCLLNNFYPREAKVQWKVDNALQSGNSQESVTEQDSKDSTYSLSSTLTLSKADYEKHKVYACEVTHQGLSSPVTKSFNRGEC
notes: one-arm antibody
B2: GLS3000 N30G one-arm antibody (H chain CE115HA000) (antibody, human IgG1, kappa, L234A L235A, N297A, name in Kabat numbering)
heavy: B1 heavy
chain: B1 chain
light: B1 light with W33N, N35G
notes: one-arm antibody
B3: GLS3000 N30S one-arm antibody (H chain CE115HA000) (antibody, human IgG1, kappa, L234A L235A, N297A, name in Kabat numbering)
heavy: B1 heavy
chain: B1 chain
light: B1 light with W33N, N35S
notes: one-arm antibody
B4: GLS3000 Q27E one-arm antibody (H chain CE115HA000) (antibody, human IgG1, kappa, L234A L235A, N297A, name in Kabat numbering)
heavy: B1 heavy
chain: B1 chain
light: B1 light with Q27E, W33N
notes: one-arm antibody
B5: GLS3000 N30I one-arm antibody (H chain CE115HA000) (antibody, human IgG1, kappa, L234A L235A, N297A, name in Kabat numbering)
heavy: B1 heavy
chain: B1 chain
light: B1 light with W33N, N35I
notes: one-arm antibody
B6: GLS3000 Q27L one-arm antibody (H chain CE115HA000) (antibody, human IgG1, kappa, L234A L235A, N297A, name in Kabat numbering)
heavy: B1 heavy
chain: B1 chain
light: B1 light with Q27L, W33N
notes: one-arm antibody
B7: GLS3000 N30Y one-arm antibody (H chain CE115HA000) (antibody, human IgG1, kappa, L234A L235A, N297A, name in Kabat numbering)
heavy: B1 heavy
chain: B1 chain
light: B1 light with W33N, N35Y
notes: one-arm antibody
B8: GLS3000 N30Q one-arm antibody (H chain CE115HA000) (antibody, human IgG1, kappa, L234A L235A, N297A, name in Kabat numbering)
heavy: B1 heavy
chain: B1 chain
light: B1 light with W33N, N35Q
notes: one-arm antibody
B9: GLS3000 N30V one-arm antibody (H chain CE115HA000) (antibody, human IgG1, kappa, L234A L235A, N297A, name in Kabat numbering)
heavy: B1 heavy
chain: B1 chain
light: B1 light with W33N, N35V
notes: one-arm antibody
B10: GLS3000 Q27D one-arm antibody (H chain CE115HA000) (antibody, human IgG1, kappa, L234A L235A, N297A, name in Kabat numbering)
heavy: B1 heavy
chain: B1 chain
light: B1 light with Q27D, W33N
notes: one-arm antibody
B11: GLS3000 N30T one-arm antibody (H chain CE115HA000) (antibody, human IgG1, kappa, L234A L235A, N297A, name in Kabat numbering)
heavy: B1 heavy
chain: B1 chain
light: B1 light with W33N, N35T
notes: one-arm antibody
B12: GLS3000 R24P one-arm antibody (H chain CE115HA000) (antibody, human IgG1, kappa, L234A L235A, N297A, name in Kabat numbering)
heavy: B1 heavy
chain: B1 chain
light: B1 light with R24P, W33N
notes: one-arm antibody
B13: GLS3000 R24G one-arm antibody (H chain CE115HA000) (antibody, human IgG1, kappa, L234A L235A, N297A, name in Kabat numbering)
heavy: B1 heavy
chain: B1 chain
light: B1 light with R24G, W33N
notes: one-arm antibody
B14: GLS3000 N30A one-arm antibody (H chain CE115HA000) (antibody, human IgG1, kappa, L234A L235A, N297A, name in Kabat numbering)
heavy: B1 heavy
chain: B1 chain
light: B1 light with W33N, N35A
notes: one-arm antibody
B15: GLS3000 N30W one-arm antibody (H chain CE115HA000) (antibody, human IgG1, kappa, L234A L235A, N297A, name in Kabat numbering)
heavy: B1 heavy
chain: B1 chain
light: B1 light with W33N, N35W
notes: one-arm antibody
B16: GLS3000 R24D one-arm antibody (H chain CE115HA000) (antibody, human IgG1, kappa, L234A L235A, N297A, name in Kabat numbering)
heavy: B1 heavy
chain: B1 chain
light: B1 light with R24D, W33N
notes: one-arm antibody
B17: GLS3000 N30D one-arm antibody (H chain CE115HA000) (antibody, human IgG1, kappa, L234A L235A, N297A, name in Kabat numbering)
heavy: B1 heavy
chain: B1 chain
light: B1 light with W33N, N35D
notes: one-arm antibody
B18: GLS3000 R24A one-arm antibody (H chain CE115HA000) (antibody, human IgG1, kappa, L234A L235A, N297A, name in Kabat numbering)
heavy: B1 heavy
chain: B1 chain
light: B1 light with R24A, W33N
notes: one-arm antibody
B19: GLS3000 N30F one-arm antibody (H chain CE115HA000) (antibody, human IgG1, kappa, L234A L235A, N297A, name in Kabat numbering)
heavy: B1 heavy
chain: B1 chain
light: B1 light with W33N, N35F
notes: one-arm antibody
B20: GLS3000 N53A one-arm antibody (H chain CE115HA000) (antibody, human IgG1, kappa, L234A L235A, N297A, name in Kabat numbering)
heavy: B1 heavy
chain: B1 chain
light: B1 light with W33N, N58A
notes: one-arm antibody
B21: GLS3000 Q27R one-arm antibody (H chain CE115HA000) (antibody, human IgG1, kappa, L234A L235A, N297A, name in Kabat numbering)
heavy: B1 heavy
chain: B1 chain
light: B1 light with Q27R, W33N
notes: one-arm antibody
B22: GLS3000 N30L one-arm antibody (H chain CE115HA000) (antibody, human IgG1, kappa, L234A L235A, N297A, name in Kabat numbering)
heavy: B1 heavy
chain: B1 chain
light: B1 light with W33N, N35L
notes: one-arm antibody
B23: GLS3000 N53D one-arm antibody (H chain CE115HA000) (antibody, human IgG1, kappa, L234A L235A, N297A, name in Kabat numbering)
heavy: B1 heavy
chain: B1 chain
light: B1 light with W33N, N58D
notes: one-arm antibody
B24: GLS3000 N30K one-arm antibody (H chain CE115HA000) (antibody, human IgG1, kappa, L234A L235A, N297A, name in Kabat numbering)
heavy: B1 heavy
chain: B1 chain
light: B1 light with W33N, N35K
notes: one-arm antibody
B25: GLS3000 R24E one-arm antibody (H chain CE115HA000) (antibody, human IgG1, kappa, L234A L235A, N297A, name in Kabat numbering)
heavy: B1 heavy
chain: B1 chain
light: B1 light with R24E, W33N
notes: one-arm antibody
B26: GLS3000 N30R one-arm antibody (H chain CE115HA000) (antibody, human IgG1, kappa, L234A L235A, N297A, name in Kabat numbering)
heavy: B1 heavy
chain: B1 chain
light: B1 light with W33N, N35R
notes: one-arm antibody
B27: GLS3000 N30M one-arm antibody (H chain CE115HA000) (antibody, human IgG1, kappa, L234A L235A, N297A, name in Kabat numbering)
heavy: B1 heavy
chain: B1 chain
light: B1 light with W33N, N35M
notes: one-arm antibody
B28: GLS3000 N28Y one-arm antibody (H chain CE115HA000) (antibody, human IgG1, kappa, L234A L235A, N297A, name in Kabat numbering)
heavy: B1 heavy
chain: B1 chain
light: B1 light with W33Y
notes: one-arm antibody
B29: GLS3000 N30E one-arm antibody (H chain CE115HA000) (antibody, human IgG1, kappa, L234A L235A, N297A, name in Kabat numbering)
heavy: B1 heavy
chain: B1 chain
light: B1 light with W33N, N35E
notes: one-arm antibody
B30: GLS3000 N30H one-arm antibody (H chain CE115HA000) (antibody, human IgG1, kappa, L234A L235A, N297A, name in Kabat numbering)
heavy: B1 heavy
chain: B1 chain
light: B1 light with W33N, N35H
notes: one-arm antibody
B31: GLS3000 N30P one-arm antibody (H chain CE115HA000) (antibody, human IgG1, kappa, L234A L235A, N297A, name in Kabat numbering)
heavy: B1 heavy
chain: B1 chain
light: B1 light with W33N, N35P
notes: one-arm antibody
B32: GLS3000 Q27P one-arm antibody (H chain CE115HA000) (antibody, human IgG1, kappa, L234A L235A, N297A, name in Kabat numbering)
heavy: B1 heavy
chain: B1 chain
light: B1 light with Q27P, W33N
notes: one-arm antibody

Each binder was assayed against T1, CD3 epsilon homodimer protein (UniProt P07766 23-126) (assay: SPR, CD3e homodimer on chip;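 note: surface plasmon resonance at 25 degrees C, antibodies flowed as analyte over CD3 epsilon homodimer amine-coupled to a CM4 chip, running buffer HBS-EP+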).
T1 construct: also called CD3 (CD3 epsilon)
T1 sequence (P07766 23-126): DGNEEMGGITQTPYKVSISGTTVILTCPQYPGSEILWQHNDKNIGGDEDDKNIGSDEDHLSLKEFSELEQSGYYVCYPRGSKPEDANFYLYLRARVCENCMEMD

| Binder | ratio of amounts bound (altered form / unaltered GLS3000 antibody) |
| --- | --- |
| B1 | 0.41 |
| B2 | 0.47 |
| B3 | 0.29 |
| B4 | 0.88 |
| B5 | 0.61 |
| B6 | 0.92 |
| B7 | 1.04 |
| B8 | 0.87 |
| B9 | 0.61 |
| B10 | 0.85 |
| B11 | 0.29 |
| B12 | 0.7 |
| B13 | 0.89 |
| B14 | 0.5 |
| B15 | 0.99 |
| B16 | 0.75 |

| Binder | ratio of amounts bound (altered form / unaltered GLS3000 antibody) |
| --- | --- |
| B17 | 0.34 |
| B18 | 0.86 |
| B19 | 1.1 |
| B20 | 0.61 |
| B21 | 1.19 |
| B22 | 0.7 |
| B23 | 0.34 |
| B24 | 1.65 |
| B25 | 0.83 |
| B26 | 1.86 |
| B27 | 0.8 |
| B28 | 0.26 |
| B29 | 0.44 |
| B30 | 0.98 |
| B31 | 0.31 |
| B32 | 0.29 |
